Like-named read-outs stand apart in the source and are kept apart here.

Consider five molecules from PMC1084328 (Nucleic Acids Research, 2005).

Data set [1] concerns the target T1, RecN (Bacillus subtilis, UniProt P17894).
T1 sequence (P17894 1-576): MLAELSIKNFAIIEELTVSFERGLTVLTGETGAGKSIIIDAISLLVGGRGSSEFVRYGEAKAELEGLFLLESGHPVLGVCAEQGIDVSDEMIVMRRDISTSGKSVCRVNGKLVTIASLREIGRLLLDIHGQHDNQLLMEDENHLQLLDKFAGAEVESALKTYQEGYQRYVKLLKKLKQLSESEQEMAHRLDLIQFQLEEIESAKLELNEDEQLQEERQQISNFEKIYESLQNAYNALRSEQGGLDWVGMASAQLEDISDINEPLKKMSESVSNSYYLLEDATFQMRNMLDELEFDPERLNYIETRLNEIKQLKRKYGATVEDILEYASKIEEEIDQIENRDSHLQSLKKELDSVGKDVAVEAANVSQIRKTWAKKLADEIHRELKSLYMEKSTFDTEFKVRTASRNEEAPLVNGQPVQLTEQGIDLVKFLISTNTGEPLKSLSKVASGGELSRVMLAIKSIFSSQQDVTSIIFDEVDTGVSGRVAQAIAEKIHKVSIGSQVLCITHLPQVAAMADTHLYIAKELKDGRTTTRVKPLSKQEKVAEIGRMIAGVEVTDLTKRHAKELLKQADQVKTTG
Description: EMSA, nucleotide-dependent RecN-ssDNA complex. It is filed as binding. (In general: Mobility shift assays separate free from complexed probe on a gel.)

Data set [2] addresses T2, RecN, high-S gradient fraction 1 (presumed octamer) (Bacillus subtilis, UniProt P17894 1-576).
T2 sequence: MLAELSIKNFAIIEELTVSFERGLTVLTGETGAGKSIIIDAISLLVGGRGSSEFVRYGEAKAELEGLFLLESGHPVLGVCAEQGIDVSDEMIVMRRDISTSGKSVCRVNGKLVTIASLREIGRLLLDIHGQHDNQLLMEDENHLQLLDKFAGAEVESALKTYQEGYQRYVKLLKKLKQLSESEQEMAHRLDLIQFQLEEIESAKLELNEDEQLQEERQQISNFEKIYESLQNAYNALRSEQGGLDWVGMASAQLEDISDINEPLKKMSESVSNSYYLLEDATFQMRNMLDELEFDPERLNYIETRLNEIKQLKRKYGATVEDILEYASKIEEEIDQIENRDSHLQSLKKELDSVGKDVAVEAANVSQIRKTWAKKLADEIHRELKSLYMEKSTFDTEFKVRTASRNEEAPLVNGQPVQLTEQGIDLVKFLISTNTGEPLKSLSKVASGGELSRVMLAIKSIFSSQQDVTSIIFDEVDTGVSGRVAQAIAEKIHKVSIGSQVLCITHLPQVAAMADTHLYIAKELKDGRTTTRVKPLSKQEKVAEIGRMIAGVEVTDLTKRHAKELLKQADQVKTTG
Description: EMSA.

Data set [3] addresses T3, RecN (Bacillus subtilis, UniProt P17894 1-576).
T3 sequence: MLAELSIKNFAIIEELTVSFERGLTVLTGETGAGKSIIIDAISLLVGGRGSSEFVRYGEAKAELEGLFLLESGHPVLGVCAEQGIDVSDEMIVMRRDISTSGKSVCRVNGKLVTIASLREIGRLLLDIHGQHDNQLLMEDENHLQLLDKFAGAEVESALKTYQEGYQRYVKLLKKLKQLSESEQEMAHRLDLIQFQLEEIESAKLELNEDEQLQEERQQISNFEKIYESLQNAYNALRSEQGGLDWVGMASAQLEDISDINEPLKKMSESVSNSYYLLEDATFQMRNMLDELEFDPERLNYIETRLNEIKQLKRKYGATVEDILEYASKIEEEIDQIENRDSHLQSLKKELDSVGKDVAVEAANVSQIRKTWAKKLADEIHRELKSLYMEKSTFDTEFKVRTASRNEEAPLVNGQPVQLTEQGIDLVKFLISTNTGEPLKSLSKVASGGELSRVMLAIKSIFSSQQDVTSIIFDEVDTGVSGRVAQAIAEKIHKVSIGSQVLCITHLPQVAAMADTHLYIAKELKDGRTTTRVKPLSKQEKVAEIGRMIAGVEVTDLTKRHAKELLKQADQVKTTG
Description: EMSA.

Data set [4] concerns the target T3, RecN. Description: EMSA. This is another data set of the same source.
The target of data set [5] is T3, RecN. Description: EMSA. This is another data set of the same source.

Consider `Nc1ncnc2c1ncn2[C@@H]1O[C@H](COP(=O)(O)OP(=O)(O)OP(O)(O)=S)[C@@H](O)[C@H]1O` [ATPγS], for which the “EMSA, nucleotide-dependent RecN-ssDNA complex (CII/CIII) assembly” value on RecN [1] (weakly hydrolysable analogue, ssDNA60, 2 mM MgCl2, pH 7.5, 37 °C) is “weakly hydrolysable analogue (ATPγS) present, CII and CIII formation was observed”. Consider `Nc1ncnc2c1ncn2[C@H]1C[C@H](O)[C@@H](COP(=O)(O)OP(=O)(O)OP(=O)(O)O)O1` [dATP], for which the “EMSA, nucleotide-dependent RecN-ssDNA complex (CII/CIII) assembly” value on RecN [1] (labelled ssDNA60 1 nM, RecN 10 nM, 2 mM MgCl2, pH 7.5, 2% PEG-6000, 37 °C, dATP 1 mM) was “also when ADP or dATP was present CIII and CII were formed”.

B1: ssDNA60 (ssDNA)
DNA: CTCCTATTATGCTCAACTTAAATGACCTACTCTATAAAGCTATAGTACTGCTATCTAATC
On to B1, for which the binding result (in data set [2]; in the data set with RecN [3]) was “binds” each time.

B2: dsDNA60 (dsDNA)
DNA 1: CTCCTATTATGCTCAACTTAAATGACCTACTCTATAAAGCTATAGTACTGCTATCTAATC
DNA 2: GATTAGATAGCAGTACTATAGCTTTATAGAGTAGGTCATTTAAGTTGAGCATAATAGGAG
In the case of B2, in the data set with RecN [4], the binding result is “no binding”.

For CTCCTATTATGCTCA (ssDNA) [ssDNA15], in the data set with RecN [5], the binding result is on record as “no binding”.
